The results in this text go back to the supplement of paper PMC9942255.

The test system of this data set is Bacillus subtilis DB104 (SP-AmyQ fusion secretion). The data set can be described thus: AmyQ secretion efficiency, weighted average sort bin (1 = best secretion, 10 = worst) (bin number (weighted average, 1-10)); higher = lower secretion efficiency. The gist of the method: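 B. subtilis DB104 library expressing mature AmyQ fused to designed signal peptides (amyE-integrated) was encapsulated at about 0.3 cells per ~65 nL alginate bead with fluorescein-starch, grown about 13 h at room temperature and nile red stained. Occupied beads were sorted by large-particle flow cytometry into 10 equally populated bins by green/red fluorescence ratio, and each bin's amplicons were Illumina-sequenced. Secretion score is the read-frequency-weighted average bin number, normalised to beads per bin, excluding low-abundance sequences.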

Several values for one entry are separate records, joined by “and”; a condition that tells them apart may be missing. Equal values may be shown once.

Turning to MTMLRKIIGWILLLCIIPLFAFTVICSGKEV, the AmyQ secretion efficiency was determined as 7.14.

With MKKKLAAGLTASAIVGTTLVVTPVEAATI, the AmyQ secretion efficiency was 2.24.

Regarding MKKKQVMLALTAAAGLGLTALHSAPAVAGAAKAAPL, the AmyQ secretion efficiency worked out at 2.43.

The sequence MKKVLMAFIICLSLILSVLAAPPSGAKVESV yielded an AmyQ secretion efficiency of 4.98.

MKKKLAAGLTASAIVGTTLVVTPAEAARK displayed an AmyQ secretion efficiency of 3.53.

In turn, MKKRFSLIMMTGLLFGLTSPDEKAFAAEK showed an AmyQ secretion efficiency of 2.56.

In the case of MKLAKRVSALTPSTTLAITMKAKEL, the AmyQ secretion efficiency worked out at 6.37.

MLNGIISFLLVSFVLFFALSTGITGVQAAPA came in with an AmyQ secretion efficiency of 3.09.

The sequence MGLGKKLSVAVAASFMSLSISLPGVQEAEG registered an AmyQ secretion efficiency of 6.02.

Sequence MRKKLKWLSFLLGFIILLFLFKKKFSNNDS had an AmyQ secretion efficiency of 7.77.

Take MRNLTKTSLLLAGLCTAAQMVFVTHMSAEES: the AmyQ secretion efficiency is 3.28.

Take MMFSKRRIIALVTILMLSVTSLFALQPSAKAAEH: the AmyQ secretion efficiency was 1.68.

MKKKLAAGLTASAIVGTTLVVTPPEAATI returned an AmyQ secretion efficiency of 5.33.

MRFTKNVVGFLSVLGLAAVFPLTAQAEKA showed an AmyQ secretion efficiency of 2.41.

MTKRGIQAFAGGIILATAVLAAVFYLTDEDQAAAR displayed an AmyQ secretion efficiency of 4.37.

Regarding MFKRGIQAFAGGIILATAVLAAVFYLTDEDQAAAV, the AmyQ secretion efficiency is 5.98.

On to MKKRRLLAAGIIGLLTVSIASPSFAAEK, for which the AmyQ secretion efficiency is 2.29 and 2.73.

MRRKKRKVVGFLSVLGLAAVFPLTAQAEKA had an AmyQ secretion efficiency of 2.12.

MRSYIKVLTMCFLGLILFVPALADNS yielded an AmyQ secretion efficiency of 6.75.

In turn, MKKTIMSFVAVAALSTTAFGAHASYKEI showed an AmyQ secretion efficiency of 7.

MGTFSTASILLLGILCSAAVFLIGAPSRALGAEV yielded an AmyQ secretion efficiency of 2.99.

In turn, MGLKKRVSMFLVALTMCGGLFVTPAKAVKT returned an AmyQ secretion efficiency of 3.29.

As to MKKQIITATTAVVLGSTLFAEDDDDEASAQSI, the AmyQ secretion efficiency was 3.86.

For MRKTIFAFLTGLMMFGTITALSASPD, the AmyQ secretion efficiency was 5.45.

As to MKVLLSALLLLLFAFEPSASTKKL, the AmyQ secretion efficiency came to 5.63.

In turn, MNFKKTGVSALSISALALSVSGVASAHEI displayed an AmyQ secretion efficiency of 3.9.

On to MKKRLIGFLVLVPALIMSGITLIEANPY, for which the AmyQ secretion efficiency is 7.07.

In turn, MRFTKVVGFLSVLGLAAVFPLTSQAEKA gave an AmyQ secretion efficiency of 4.09.

Take MTSGTFIIWTIILGALLVCCIAVAYTLTKSQAGASSS: the AmyQ secretion efficiency stood at 4.88.

In turn, MAIIIAIIAAVIVIAALITFNVGNASPG displayed an AmyQ secretion efficiency of 5.7.

In the case of MLKKIALTLCPAIVGSLLFFTAPQSAHVS, the AmyQ secretion efficiency stood at 5.63.

As to MTGYYKVLTMCFLGLILFVPTALADNS, the AmyQ secretion efficiency was found to be 1.69.

On to MKKKIRRKKKKSAVVGSSMAAAPAEAKTI, for which the AmyQ secretion efficiency stood at 7.24.

Sequence MTMLRKIIGWILLLCIIPLFAFTVIRSGKEV yielded an AmyQ secretion efficiency of 7.52.

MAIIIAIIAAVIVIAALINVRNASPG: the AmyQ secretion efficiency amounted to 8.6.

The sequence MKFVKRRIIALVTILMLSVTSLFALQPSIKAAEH yielded an AmyQ secretion efficiency of 3.57.

In the case of MPGKSAVLLSLIMLIAGFLISFSFQM, the AmyQ secretion efficiency came out at 7.65.

As to MSLMIVFMTLPLLIVCLAFSSFSASARAASE, the AmyQ secretion efficiency was determined as 4.54.

MKKRLIGFLVLVPALIMSGITLIERNKK showed an AmyQ secretion efficiency of 6.81.

MKLAKRVSALTPSTTLAIATAKAKEL had an AmyQ secretion efficiency of 7.06.

For the sequence MTMLRKIIGWILLLCIIPLFAFTVIASTKEV, the AmyQ secretion efficiency was 7.17.

As to MKSCKQLIVCSLAAILLLDPQPSFAADS, the AmyQ secretion efficiency came to 4.16.

Regarding MTKLKMLSMLTVMIASLFIFSSQMLAVQY, the AmyQ secretion efficiency stood at 4.6.

Take MKKWMITIAMLILAGIALFVFISPLKGHKT: the AmyQ secretion efficiency stood at 6.29.

MGLGKKLSVAVAASFMSLSISLKRRRKRVQAAEG yielded an AmyQ secretion efficiency of 7.64.

In turn, MKKWMASQKKSTQVLLCLMVPQQIQGASS gave an AmyQ secretion efficiency of 7.24.

Take “MKRSIMLSNIIILLVSLRVWMVFLMNWVTPDRKTAAAAVY”: the AmyQ secretion efficiency is 6.91.

The sequence MLCVMMLLFSAIASAQAKDQ displayed an AmyQ secretion efficiency of 6.18.

Consider MKWMCSICCAAVLLAGGAWQAEAV, for which the AmyQ secretion efficiency turned out to be 3.41.

For MKRFSTLLLGILCSAAVFLIGAPSRALGAEV, the AmyQ secretion efficiency was 2.96.

The sequence MIKKLAAGLTASAIVGTTLVVTPAEAATI gave an AmyQ secretion efficiency of 2.3.

Regarding MLKKIALTLCPAIVGSLLFFTAPNSAHVS, the AmyQ secretion efficiency is 6.42.

Sequence MKKRLIAPMLLSAASLAFFAMSGSRQAAAY had an AmyQ secretion efficiency of 6.03.

Regarding MKRKLLSSLAISALSLGLLVSAPTASFAASS, the AmyQ secretion efficiency came out at 1.56.

Take MLTINLLTIYIMLLGLIAWFPGAAQAEEK: the AmyQ secretion efficiency was 4.46.

MKLWMRKTLVVLFLIVFFFLGTVSPPAALMADKP registered an AmyQ secretion efficiency of 3.95.

For the sequence MKRIRIPMTLALGAALTIAPLSFKSAEEN, the AmyQ secretion efficiency was determined as 6.9.

MRKKRVITCVMAASLTLGSLLPAGYVTAKED registered an AmyQ secretion efficiency of 2.51.

In turn, MKRQCYWTYQSSRQLVLLPGKALGAVD had an AmyQ secretion efficiency of 8.11.

MHLIRAAGAVCLAVVLIAGCRFNEDQAEGENT: the AmyQ secretion efficiency came to 5.78.

Sequence MKVLLSALLLLLFAFEPSASWKKL had an AmyQ secretion efficiency of 5.1.

As to MKQIMIFLTSFMLLARRRRKKALAKDV, the AmyQ secretion efficiency is 7.64.

MRSKKLWISLLFALFTMAFSNMSAQAAGK returned an AmyQ secretion efficiency of 2.16.

Consider MKRKRKRIMIFLTSFMLLAMTGQTALAKDV, for which the AmyQ secretion efficiency was 3.59.

MKKWTNMSLLIIAVSLAIAIVLFMYTKGEAKAAGM: the AmyQ secretion efficiency was determined as 2.33.

The sequence MRMLWRSLALCGLALTLAPCMQAAEP displayed an AmyQ secretion efficiency of 1.94.

In turn, MRPVFPLILSAVLFLSCFFGARQTELSASKR gave an AmyQ secretion efficiency of 3.47.

MRSYIKVLTMCFLGLILFVPTALNDNS returned an AmyQ secretion efficiency of 6.3.

For MPIFKKVMMCLAVTLVFGSMSFPTLTNSGGFKE, the AmyQ secretion efficiency amounted to 6.15.

For MKKSQYFIVFICFFVLFSRHKKAAAAADS, the AmyQ secretion efficiency came out at 6.2.

For MKRFILVLSFLSIIVLVTSASSFLAYPIQTNASPM, the AmyQ secretion efficiency turned out to be 5.04.

For MKKRFFGPIILAFILFAGAIHIPS, the AmyQ secretion efficiency amounted to 5.21.

Regarding MKVPKTMLLSTAAGLLLSLKKRSVSAHYV, the AmyQ secretion efficiency was 6.92.

Sequence MFKKHTRKRKIIFLLASAVLAKPIEAHTV returned an AmyQ secretion efficiency of 7.04.

As to MTQFAITLSVLCALILLVPTLLVIPFQHNKEAGASV, the AmyQ secretion efficiency was 7.59.

As for MKKRKCLLFLTTIALILSLSTNAFAKNT, the AmyQ secretion efficiency worked out at 1.8.

In the case of MKKRRAIIIAIIAAVIVIAALITFNVRNASPG, the AmyQ secretion efficiency came out at 5.35.

On to MRIFKKARKKRRKSFLIATVNVNTAHAAID, for which the AmyQ secretion efficiency is 6.58.

MRSKKLWISLLFALTLIFTMAFSNMSCQAAGK showed an AmyQ secretion efficiency of 2.77.

As to MKKRKITIAMLILAGIALFVFISPLKSHKT, the AmyQ secretion efficiency was 6.94.

For the sequence MTLGGSVSMFLVALTMCGGLFVTPAKAVKT, the AmyQ secretion efficiency came to 3.81.

In turn, MKSCKQLIVCSLAAILLLKRKKKRSFAADS had an AmyQ secretion efficiency of 7.68.

Consider MPYLKRVLLLLVTGLFMSLFIFLIVISAVTATASAQTG, for which the AmyQ secretion efficiency was determined as 1.25.

Regarding MKSKGSIMACLILFSFTITTTINTETISAFSN, the AmyQ secretion efficiency stood at 5.95.

MKKWMAGLFLAAAVLLCLMVPQQVQGASS returned an AmyQ secretion efficiency of 3.15.

The sequence MRNLTKTSLLLAGLCTAAQMVFVTHASAASK came in with an AmyQ secretion efficiency of 1.6.

In the case of MLFIFVITCVMAASLTLGSLLPAGYATAKED, the AmyQ secretion efficiency stood at 4.43.

As to MKLRKVLTGSVLSLGLLDDEEDDAFATSP, the AmyQ secretion efficiency was 7.86.

In the case of MLKKIALTLCPAIVGSLLFFTAPCSAHVS, the AmyQ secretion efficiency came to 3.32.

MKKRITYSTSYQQTRVAFAFTDSSKAKAAEA had an AmyQ secretion efficiency of 6.55.

In turn, MKKWMITIAMLILAGIALFVFISPFKSHKT came in with an AmyQ secretion efficiency of 6.23.

MKKAKRKRRKAAVGLFTFGGVQQASAKEL: the AmyQ secretion efficiency came out at 8.05.

MKRLFMKARRRLFAVVFVFAVKGAPAKAETH gave an AmyQ secretion efficiency of 6.05.

The sequence MKIRKILLSSALSFGMLISAVPCLAAGT yielded an AmyQ secretion efficiency of 2.

On to MKSKGSIMACLILFSFTITGDPNTETISAFSN, for which the AmyQ secretion efficiency was determined as 4.93.

MKKWMITIAMLILAGIALFVFISPWKSHKT registered an AmyQ secretion efficiency of 6.16.

Turning to MKKVLMAFIICLSLILSVLAAPPSGCKAESV, the AmyQ secretion efficiency turned out to be 1.89.

Consider MRSKKTWISLLFALTLIFTMAFSNMSAQAAGK, for which the AmyQ secretion efficiency amounted to 3.25.

With MFNRLFRVCFLAALIMAFTLPNSIYAQKP, the AmyQ secretion efficiency amounted to 2.87.

As to MNKKYFVLIVCIIFTSALFPTFSSVTRAQG, the AmyQ secretion efficiency is 1.05.

The sequence MRNLTKTSLLLAGLCTAAQMVFVTHTSAEES yielded an AmyQ secretion efficiency of 3.23.

As to MNLRKIKKSSALSLGMLVSAAPVLATSS, the AmyQ secretion efficiency amounted to 5.42.

For the sequence MKKRRSLIMMTGLLFGLTSPAFAAEK, the AmyQ secretion efficiency worked out at 3.58.

For MNLRKILLSSALSLGMLVSAAPFLATSS, the AmyQ secretion efficiency came out at 6.67.

Consider MKKIWIGMLAAAVLLLMVPKVMLADAA, for which the AmyQ secretion efficiency is 4.26.

Sequence MKRLLVSLRVWMVFLMNWVTPDRKTAADAVY registered an AmyQ secretion efficiency of 5.95.

With MNKPTKLFSTLALAAGMTAAAAGGAGTVHAQQP, the AmyQ secretion efficiency was 2.25.

For MKLKKRVSYFLVALTMCGGLFVTPAKAVKT, the AmyQ secretion efficiency was found to be 6.42.
